# Measured values taken from patent US9395368B2, “Methods, agents and peptides for inducing an immune response to matrix metalloproteinase-2 expressing tumors” (New York University, priority 2010, dated 2016).
# B1: active MMP-2: Purified human MMP-2 (mixture of the proenzyme (50%) and the active form (50%)) purchased from Biomol (protein, listed as Homo sapiens)
# chain: MEALMARGALTGPLRALCLLGCLLSHAAAAPSPIIKFPGDVAPKTDKELAVQYLNTFYGCPKESCNLFVLKDTLKKMQKFFGLPQTGDLDQNTIETMRKPRCGNPDVANYNFFPRKPKWDKNQITYRIIGYTPDLDPETVDDAFARAFQVWSDVTPLRFSRIHDGEADIMINFGRWEHGDGYPFDGKDGLLAHAFAPGTGVGGDSHFDDDELWTLGEGQVVRVKYGNADGEYCKFPFLFNGKEYNSCTDTGRSDGFLWCSTTYNFEKDGKYGFCPHEALFTMGGNAEGQPCKFPFRFQGTSYDSCTTEGRTDGYRWCGTTEDYDRDKKYGFCPETAMSTVGGNSEGAPCVFPFTFLGNKYESCTSAGRSDGKMWCATTANYDDDRKWGFCPDQGYSLFLVAAHEFGHAMGLEHSQDPGALMAPIYTYTKNFRLSQDDIKGIQELYGASPDIDLGTGPTPTLGPVTPEICKQDIVFDGIAQIRGEIFFFKDRFIWRTVTPRDKPMGPLLVATFWPELPEKIDAVYEAPQEEKAVFFAGNEYWIYSASTLERGYPKPLTSLGLPPDVQRVDAAFNWSKNKKTYIFAGDKFWRYNEVKKKMDPGFPKLIADAWNAIPDNLDAVVDLQGGGHSYFFKGAYYLKLENQSLKSVKFGSIKSDWLGC
# Key:
# [1] = test system: Cord blood-derived CD4+/CD25- cells; assay: Priming of naive cord blood CD4+ T cells with autologous CD4- cells loaded with different sources of MMP-2; format: cell-based, human
# Description: Cord blood-derived CD4^+/CD25^− cells from 11 donors were stimulated with irradiated autologous CD4^− cells loaded either with active MMP-2, heat-inactivated (HI) MMP-2 or with MMP-2 pre-incubated with a specific inhibitor (+I). After 15 days, CD4^+ T cells were stimulated with the MMP-2 peptide pool (2 μM) for 6 h before intracellular staining of cytokines. (A) Density plots representing cytokine production by CD4^+ T cells are shown for the representative donor CB35 primed to MMP-2 either in its active form or after heat-inactivation. Numbers indicate percentages of cytokine-producing cells upon MMP-2 peptide stimulation. […] MMP-2 enzymatic activity was controlled (FIG. 13C-D). For each cytokine, 3 paired t-tests were used to compare active MMP-2 to heat inactivated MMP-2, to MMP-2+I, and to MMP-2 peptides. P values≦0.0167 (*) were considered statistically significant using a Bonferroni correction for 3 comparisons.
# T Cell culture, stimulation and priming. Peripheral blood mononuclear cells (PBMCs) were purified from healthy donor-(HD) or cord blood donor-(CB) derived buffy coats (New York Blood Center) by Ficoll-Paque Plus (GE Healthcare) centrifugation. CD4^+/CD25^− cells were enriched (>90%) by magnetic cell sorting (Miltenyi Biotec) and primed/stimulated for 12-15 days either with irradiated (35Gy) autologous CD4^− cells or with autologous mature DCs in IMDM (GIBCO) supplemented with 1 mM HEPES (Life Technologies), 2 mM L-glutamine (Sigma), streptomycin (100 UI/mL)/penicillin (100 μg/mL) (Sigma) and 5% heat inactivated pooled human serum (PHS; Valley Biomedical) in the presence of rhIL-2 (10 UI/mL) and IL7 (5 ng/mL) (R&D Systems). Antigen presenting cells (CD4^− cells or DCs) were loaded either with peptides (2 μM) or with the MMP-2 protein (10 μg/mL) for 2 and 5 h, respectively. DCs were matured using the TLR3 agonist poly(I:C) at 5 μg/mL/10^6 DCs (Amersham). To generate T cell clones, we originally relied on our published methodology (Godefroy et al., 2006; Godefroy et al., 2007; the entire contents of each of which is incorporated herein by reference), involving enrichment of IFNγ-secreting cells upon short-term culture and peptide stimulation to generate MMP-2 responsive clones. Briefly, CD4^+ T cells were stimulated by CD4^− cells irradiated and pulsed with peptides for 12 days in the presence of rhIL-2 and rhIL-7. CD4^+ T cells were then restimulated with peptides for 3 hours before capturing IFNγ-secreting specific cells using a bispecific antibody coating T cells and capturing produced IFNγ. Positive cells were purified magnetically before being cloned. Although MMP-2-specific cells could be isolated, it was realized that IFNγ secretion was marginal compared to their secretion of IL-4 and TNFα. IFNγ-secreting cells in response to MMP-2 peptide pool were enriched by cytokine-guided magnetic cell sorting (Miltenyi Biotec) as described above and cloned the following day by limiting dilution in the presence of irradiated allogeneic PBMCs, 1 μg/mL phytohemagglutinin-L (Sigma) and 150 UI/mL rhIL-2. Tumor infiltrating lymphocytes (TILs) were provided by Pr. F. Jotereau and B. Dréno. They were obtained from tumor-invaded lymph nodes of melanoma patients (stage Mb) and expanded ex vivo. These patients received autologous TILs and IL-2 infusions in a clinical trial (Labarriere et al., 2002). This protocol was approved by the Institutional Ethics Committee and registered with regulatory state authority in France (Nantes).
# Intracellular staining T-bet and GATA-3 expression was measured on resting T cells. Cells were fixed (4% paraformaldehyde for 10 min at RT), permeabilized with 0.1% saponin, and stained for intracellular transcription factors. Cytokine production by T cells was also assessed by intracellular staining T cells were stimulated with 2 μM overlapping peptides. After 1 h, 10 μg/mL brefeldin A was added to the cells. […]
# IFNAR1 = IFNAR1 protein expression in DCs (Western blot); format: cell-based, human; conditions: n=7 donors
# Description: Immature DCs were incubated with MMP-2 (0.5 μg/mL or 5 μg/mL) and poly(I:C)-matured 1 h later. IL-12 levels were measured 16 h later. (A) Results are represented as a percentage of IL-12p70 levels, measured by CBA, produced when DCs were incubated with poly(I:C) only (n=11). (B) For intracellular staining of IL-12p35 and IL-12p40 chains, Brefeldin A was added 4 h after poly(I:C) activation and cells were stained after an additional 12 h incubation. Numbers in the upper right quadrants are the percentages of each population for a representative donor (n=3). (C,D) Immature DCs were incubated with MMP-2 for 1 h (5 μg/mL) before poly(I:C) maturation. Intracellular staining of phosphorylated (Y701) STAT1 (P-STAT1) was performed 3 h later. A representative donor (C) and results for all 3 donors (D) are shown. […] (E) Immature DCs were incubated with MMP-2 and poly(I:C)-matured 1 h later. IFNβ levels were measured by ELISA 16 h later. Results are represented as a percentage of IFNβ levels produced when DCs were incubated with poly(I:C) only (n=9). (F,G) 10^6DCs/lane were treated with 0.1 μg MMP-2 or controls. Poly(I:C) was added 1 h later. IFNAR1 protein expression was detected the next day by Western blot analysis using a rabbit monoclonal antibody. […]
# Western blots IFNAR1 and β-actin were detected by Western blot analysis using rabbit and mouse mAbs, respectively. […]
molecule,measurement,setting,value
B1,"percentage of MMP-2-specific CD4+ T cells secreting IL-4, mean","[1]; 11 cord blood donors, 15 days after priming, after background subtraction",2.38%
same,IFNγ and IL-2 production compared to inactive MMP-2 or peptides,"[1]; primed cells, 15 days",less
same,expression of IFNAR1 chain on DCs,IFNAR1,drastically lost expression
